This experiment has as its target Collagen S (soluble, type I, from calf skin) (calf) (UniProt P02453). In words: radioligand binding; collagen I monomers (5 µg/mL in 1% acetic acid + 1% NaCl) coated on 96-well plates, blocked with 1% BSA; 125I-labelled A1M (50×10^3 cpm) with increasing unlabelled A1M in PBS + 0.05% Tween, overnight at 4°C; Scatchard analysis.
Chain of UniProt P02453 (P02453 162-1217, chain 1 of 2): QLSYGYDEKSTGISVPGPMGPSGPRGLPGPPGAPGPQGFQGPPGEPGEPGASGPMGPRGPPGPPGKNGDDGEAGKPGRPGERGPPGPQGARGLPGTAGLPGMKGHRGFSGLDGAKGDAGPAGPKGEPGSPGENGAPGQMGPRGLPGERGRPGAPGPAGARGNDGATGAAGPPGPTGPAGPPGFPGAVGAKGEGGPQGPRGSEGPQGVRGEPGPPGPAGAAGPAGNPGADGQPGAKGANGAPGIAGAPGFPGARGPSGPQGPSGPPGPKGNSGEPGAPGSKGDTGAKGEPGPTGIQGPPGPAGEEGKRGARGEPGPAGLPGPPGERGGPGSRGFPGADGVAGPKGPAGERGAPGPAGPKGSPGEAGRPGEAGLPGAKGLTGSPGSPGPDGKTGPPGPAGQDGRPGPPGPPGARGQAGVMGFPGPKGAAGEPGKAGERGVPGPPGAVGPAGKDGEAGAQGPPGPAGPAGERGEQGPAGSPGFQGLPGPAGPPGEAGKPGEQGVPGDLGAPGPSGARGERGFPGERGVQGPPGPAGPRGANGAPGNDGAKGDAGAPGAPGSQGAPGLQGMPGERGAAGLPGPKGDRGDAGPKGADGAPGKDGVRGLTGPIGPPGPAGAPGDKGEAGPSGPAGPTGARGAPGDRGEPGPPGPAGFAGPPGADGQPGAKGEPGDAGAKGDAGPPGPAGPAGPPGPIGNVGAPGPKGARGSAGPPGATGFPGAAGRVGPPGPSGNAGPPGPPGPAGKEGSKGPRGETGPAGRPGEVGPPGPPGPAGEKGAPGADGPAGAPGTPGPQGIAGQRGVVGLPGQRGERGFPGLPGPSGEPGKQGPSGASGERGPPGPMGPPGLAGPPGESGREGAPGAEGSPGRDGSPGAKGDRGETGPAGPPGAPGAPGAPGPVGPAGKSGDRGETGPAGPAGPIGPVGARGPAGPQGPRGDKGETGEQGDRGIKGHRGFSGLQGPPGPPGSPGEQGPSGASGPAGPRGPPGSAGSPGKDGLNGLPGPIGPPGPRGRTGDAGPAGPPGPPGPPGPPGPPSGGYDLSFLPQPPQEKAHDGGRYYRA
Chain of UniProt P02453 (P02465 80-1117, chain 2 of 2, further chain): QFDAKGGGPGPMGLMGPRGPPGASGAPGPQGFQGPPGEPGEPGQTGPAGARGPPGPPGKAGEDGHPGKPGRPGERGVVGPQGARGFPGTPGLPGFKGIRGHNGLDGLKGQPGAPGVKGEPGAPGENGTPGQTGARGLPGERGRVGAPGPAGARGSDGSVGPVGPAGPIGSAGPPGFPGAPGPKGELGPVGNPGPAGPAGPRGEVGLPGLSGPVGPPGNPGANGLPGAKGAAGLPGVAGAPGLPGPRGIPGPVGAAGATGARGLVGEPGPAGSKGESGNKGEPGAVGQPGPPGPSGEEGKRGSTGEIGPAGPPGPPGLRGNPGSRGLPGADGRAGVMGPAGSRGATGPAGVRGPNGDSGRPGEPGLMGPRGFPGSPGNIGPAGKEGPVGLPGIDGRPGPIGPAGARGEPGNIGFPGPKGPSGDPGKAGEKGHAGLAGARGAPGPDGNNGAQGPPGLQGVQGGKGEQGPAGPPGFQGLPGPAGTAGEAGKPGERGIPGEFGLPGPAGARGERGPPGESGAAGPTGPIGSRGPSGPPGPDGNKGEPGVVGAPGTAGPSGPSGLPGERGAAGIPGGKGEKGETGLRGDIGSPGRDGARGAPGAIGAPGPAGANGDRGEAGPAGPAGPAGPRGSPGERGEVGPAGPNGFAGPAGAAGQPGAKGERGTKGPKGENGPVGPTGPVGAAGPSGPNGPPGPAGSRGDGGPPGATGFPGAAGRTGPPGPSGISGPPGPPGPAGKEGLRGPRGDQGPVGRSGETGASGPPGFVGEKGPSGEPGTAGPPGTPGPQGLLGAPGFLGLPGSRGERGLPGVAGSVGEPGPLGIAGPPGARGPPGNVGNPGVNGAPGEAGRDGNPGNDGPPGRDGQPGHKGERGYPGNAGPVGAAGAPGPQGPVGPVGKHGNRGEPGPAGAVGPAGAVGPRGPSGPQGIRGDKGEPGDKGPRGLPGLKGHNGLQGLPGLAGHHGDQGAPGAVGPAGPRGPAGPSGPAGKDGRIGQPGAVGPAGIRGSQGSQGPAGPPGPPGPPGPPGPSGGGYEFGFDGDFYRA

B1: Recombinant human α1-microglobulin (A1M) (natural protein)
chain: GPVPTPPDNIQVQENFNISRIYGKWYNLAIGSTCPWLKKIMDRMTVSTLVLGEGATEAEISMTSTRWRKGVCEETSGAYEKTDTDGKFLYHKSKWNITMESYVVHTNYDEYAIFLTKKFSRHHGPTITAKLYGRAPQLRETLLQDFRVVAQGVGIPEDSIFTMADRGECVPGEQEPEPILIPRV
modifications: 125I label (chloramine T method) on the tracer in the solid phase binding assay; colloidal gold label (4-5 nm) in the electron microscopy binding experiment
In the case of B1, the dissociation constant (Kd) (commonly the equilibrium constant for the complex coming apart) is 960 nM.
